# Measurements taken from patent WO2007044695A2 (dated 2007).
# Target: GD03-S1(318-510)-C9 protein (SARS-CoV GD03 (GD03T0013), UniProt P59594 318-510)
# Test: ELISA, serial dilutions of coated S1-(318-510)-C9 protein, 0.5 ug/ml IgG1
binder,measurement,value
"11A IgG1 (antibody, V domains shown) VH: EVQLVQSGAEVKKPGESLKISCKGSGYSFTSYWIGWVRQMPGKGLEWMGIINPDNSDTRFSPSLQGQVTISVDKSINTVYLQWGSLKASDTAMYYCARQGDYSGPSINYWGQGTLVTVSS VL: QSVLTQPASVSGSPGQSITISCTGTSSDVGGYNYVSWYQQHPGKAPKLMIYDVSKRPSGIPERFSGSNSGNTATLTISGTQAMDEADYYCQAWDSNTYVFGTGTKVTVLV",binding result,binds
